Data reported in patent US20180057557A1 (University of Pennsylvania, published 2018).

Target: T1, recombinant folate receptor alpha protein (immobilized) (UniProt P15328 25-233, limits assumed)
T1 construct: also called FRa
Test: binding of GFP+ IR T cells to immobilized recombinant protein (FIG. 3A)

T1 sequence (P15328 25-233 limits assumed): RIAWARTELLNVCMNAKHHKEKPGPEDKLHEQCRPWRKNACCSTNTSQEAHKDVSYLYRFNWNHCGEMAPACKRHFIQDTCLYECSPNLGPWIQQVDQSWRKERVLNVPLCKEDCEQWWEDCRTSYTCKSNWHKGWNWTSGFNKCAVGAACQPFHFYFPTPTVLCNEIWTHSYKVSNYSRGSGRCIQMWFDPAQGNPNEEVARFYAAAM

binding result	Binder
no binding	Anti-FSHRb51-65FSH-28z immunoreceptor (on primary human T cells) (other, not shown: large carriers, Chimeric immunoreceptor on transduced primary human T cells; also called anti-FSHR (51-65)-28z IR; Anti-FSHR(51-65)-28z) not shown
no binding	Anti-FSHRb33-53FSH-28z immunoreceptor (on primary human T cells) (other, also called anti-FSHR (33-53)-28z IR; Anti-FSHR(33-53)-28z) not shown
